From article PMC10621737

T1: rMtbEspR (Mycobacterium tuberculosis H37Rv, UniProt P9WJB7 1-132)
T1 sequence: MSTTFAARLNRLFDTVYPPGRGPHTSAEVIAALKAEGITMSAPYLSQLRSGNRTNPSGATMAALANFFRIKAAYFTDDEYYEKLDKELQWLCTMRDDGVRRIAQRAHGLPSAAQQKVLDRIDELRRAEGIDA


What follows are binders tested against T1, rMtbEspR (assay: EMSA; poly(dI-dC) 50 ng/ml). Settings: protein: recombinant; tags: N- and C-terminal 6xHis; chain copies: 2; label: 32P 5' end (T4 PNK); blunt.

Binder | binding result
IL-4 promoter full EMSA probe (FL) (dsDNA) DNA 1: CTATGCAAAGCAAAAAGCCAGCAGCAGCCCCAAGCTGATAAGATTAATCTAAAGAGCAAATTATGGTG DNA 2: CACCATAATTTGCTCTTTAGATTAATCTTATCAGCTTGGGGCTGCTGCTGGCTTTTTGCTTTGCATAG | binds
HIV LTR EMSA probe (dsDNA) DNA 1: CAGTTGAACCAGAGCAAGTAGAAGAGGCC DNA 2: GGCCTCTTCTACTTGCTCTGGTTCAACTG | no binding
IFN-gamma promoter EMSA probe (dsDNA) DNA 1: GAATTTCGTTTTTCACTTGTTCCCAACCACAAGCAAATGATCAATGT DNA 2: ACATTGATCATTTGCTTGTGGTTGGGAACAAGTGAAAAACGAAATTC | no binding
